How the values were obtained:
E. coli (K1) = test: In vitro antimicrobial activity against E. coli (K1); assay type: cell-based
Experimental: (§1) Mid-log phase bacteria (10^5) were incubated in the absence or presence of purified MMP-12 C-terminal in a total volume of 100 μl of 10 mmol/L sodium phosphate containing 5% (vol/vol) TSB at 37° C. for 1 hour. Serial dilutions were then spread on agarose plates and the number of CFUs were determined after overnight incubation.

S. aureus = test: In vitro antimicrobial activity, co-incubation with S. aureus in 5% LB and CFU count; assay type: cell-based, Staphylococcus aureus; settings: for direct antimicrobial activity: S. aureus, similar doses and conditions as full-length MMP-12; for antimicrobial activity after heat denaturation: heat denaturation / heat inactivation; for antimicrobial activity after enzymatic inhibition: inhibited with hydroxamic acid, an MMP inhibitor
Experimental: S. aureus co-culture was incubated for 60 minutes with doses of MMP-12 C-terminal. Aliquots of cultures were diluted in PBS at 1:10 and 1:100 dilution. Dilutions were plated on LB agar plates for 18 hour incubation at 37° C. Controls consisted of column fractions that lacked MMP-12 carboxy terminal determined by immunoblotting.
(§2) MMP-12's mechanism of action as a host defense protein was investigated. To test for direct activity, functional full-length recombinant human MMP-12 was incubated with S. aureus in a 5% LB culture. […] MMP-12 enzymatic activity was not required for this antimicrobial effect.
as §1

K. pneumonia = test: In vitro antimicrobial activity against K. pneumonia; assay type: cell-based; settings: compared with S. aureus dose response
Experimental: as §2
Recombinant full length human MMP-12 was co-incubated with S. aureus and K. pneumonia for 2 hours. Dose response curve was for recombinant murine carboxy terminal domain against S. aureus and E. coli after one-hour co-incubation.

B1: MMP-12: functional full-length recombinant human MMP-12 (macrophage elastase), Genbank NP_002417 (protein, listed as Homo sapiens)
chain: MKFLLILLLQATASGALPLNSSTSLEKNNVLFGERYLEKFYGLEINKLPVTKMKYSGNLMKEKIQEMQHFLGLKVTGQLDTSTLEMMHAPRCGVPDLHHFREMPGGPVWRKHYITYRINNYTPDMNREDVDYAIRKAFQVWSNVTPLKFSKINTGMADILVVFARGAHGDFHAFDGKGGILAHAFGPGSGIGGDAHFDEDEFWTTHSGGTNLFLTAVHEIGHSLGLGHSSDPKAVMFPTYKYVDINTFRLSADDIRGIQSLYGDPKENQRLPNPDNSEPALCDPNLSFDAVTTVGNKIFFFKDRFFWLKVSERPKTSVNLISSLWPTLPSGIEAAYEIEARNQVFLFKDDKYWLISNLRPEPNYPKSIHSFGFPNFVKKIDAAVFNPRFYRTYFFVDNQYWRYDERRQMMDPGYPKLITKNFQGIGPKIDAVFYSKNKYYYFFQGSNQFEYDFLLQRITKTLKSNSWFGC
For B1, the “antimicrobial activity against E. coli (K1)” value (E. coli (K1)) was “antimicrobial activity”, the bacterial kill (S. aureus; 16 μg/ml, 2-hour incubation, 5% LB culture) was 90% and the direct antimicrobial activity (S. aureus; 5% LB culture) was “antimicrobial activity”. For the same molecule, the direct antimicrobial activity (S. aureus; 5% LB culture, listed as pro-MMP-12) was “direct anti-microbial effect”, the “antimicrobial activity after heat denaturation” value (S. aureus) was “Neither the denatured MMP-12 or enzymatically inhibited enzyme lost its antimicrobial function” and the “antimicrobial activity after heat denaturation” value (S. aureus; listed as Pro-MMP-12) was “did not lose its anti-microbial activity”. For the same molecule, the “antimicrobial activity after enzymatic inhibition” value (S. aureus) was “Neither the denatured MMP-12 or enzymatically inhibited enzyme lost its antimicrobial function”, the “antimicrobial activity after enzymatic inhibition” value (S. aureus; listed as Pro-MMP-12) was “did not lose its anti-microbial activity” and the “antimicrobial activity against K. pneumonia” value (K. pneumonia) was “antimicrobial activity”.

B2: MMP-9: commercially available full length pro-MMP 9 (protein, UniProt P14780 20-707, looked up)
pro-form: APRQRQSTLVLFPGDLRTNLTDRQLAEEYLYRYGYTRVAEMRGESKSLGPALLLLQKQLSLPETGELDSATLKAMRTPRCGVPDLGRFQTFEGDLKWHHHNITYWIQNYSEDLPRAVIDDAFARAFALWSAVTPLTFTRVYSRDADIVIQFGVAEHGDGYPFDGKDGLLAHAFPPGPGIQGDAHFDDDELWSLGKGVVVPTRFGNADGAACHFPFIFEGRSYSACTTDGRSDGLPWCSTTANYDTDDRFGFCPSERLYTQDGNADGKPCQFPFIFQGQSYSACTTDGRSDGYRWCATTANYDRDKLFGFCPTRADSTVMGGNSAGELCVFPFTFLGKEYSTCTSEGRGDGRLWCATTSNFDSDKKWGFCPDQGYSLFLVAAHEFGHALGLDHSSVPEALMYPMYRFTEGPPLHKDDVNGIRHLYGPRPEPEPRPPTTTTPQPTAPPTVCPTGPPTVHPSERPTAGPTGPPSAGPTGPPTAGPSTATTVPLSPVDDACNVNIFDAIAEIGNQLYLFKDGKYWRFSEGRGSRPQGPFLIADKWPALPRKLDSVFEERLSKKLFFFSGRQVWVYTGASVLGPRRLDKLGLGADVAQVTGALRSGRGKMLLFSGRRLWRFDVKAQMVDPRSASEVDRMFPGVPLDTHDVFQYREKAYFCQDRFYWRVSSRSELNQVDQVGYVTYDILQCPED
modifications: pro-form
With B2 the direct antimicrobial activity (S. aureus; 5% LB culture) was “did not demonstrate this direct antimicrobial activity”.

B3: MMP-2: commercially available full length pro-MMP 2 (protein, UniProt P08253 30-660, looked up)
pro-form: APSPIIKFPGDVAPKTDKELAVQYLNTFYGCPKESCNLFVLKDTLKKMQKFFGLPQTGDLDQNTIETMRKPRCGNPDVANYNFFPRKPKWDKNQITYRIIGYTPDLDPETVDDAFARAFQVWSDVTPLRFSRIHDGEADIMINFGRWEHGDGYPFDGKDGLLAHAFAPGTGVGGDSHFDDDELWTLGEGQVVRVKYGNADGEYCKFPFLFNGKEYNSCTDTGRSDGFLWCSTTYNFEKDGKYGFCPHEALFTMGGNAEGQPCKFPFRFQGTSYDSCTTEGRTDGYRWCGTTEDYDRDKKYGFCPETAMSTVGGNSEGAPCVFPFTFLGNKYESCTSAGRSDGKMWCATTANYDDDRKWGFCPDQGYSLFLVAAHEFGHAMGLEHSQDPGALMAPIYTYTKNFRLSQDDIKGIQELYGASPDIDLGTGPTPTLGPVTPEICKQDIVFDGIAQIRGEIFFFKDRFIWRTVTPRDKPMGPLLVATFWPELPEKIDAVYEAPQEEKAVFFAGNEYWIYSASTLERGYPKPLTSLGLPPDVQRVDAAFNWSKNKKTYIFAGDKFWRYNEVKKKMDPGFPKLIADAWNAIPDNLDAVVDLQGGGHSYFFKGAYYLKLENQSLKSVKFGSIKSDWLGC
modifications: pro-form
For B3, the direct antimicrobial activity (S. aureus; 5% LB culture) was “did not demonstrate this direct antimicrobial activity”.

Reference: US20030235577A1, “Methods and compositions for preventing and treating microbial infections” (priority 2002, published 2003)
